# In patent US20250263441A1 (published 2025):
# B1: AMP5-T7A (peptide)
# peptide: GIFKKIAGKLFKWIK
# notes: Chemically synthesized variant of AMP5
# B2: AMP5 (peptide)
# peptide: GIFKKITGKLFKWIK
# notes: also called polypeptide 1
# B3: AMP5-L10C (peptide)
# peptide: GIFKKITGKCFKWIK
# notes: as for B1
# Target: Toll-Like Receptor 2 (TLR2)
# Experiment: SPR
# Toll-Like Receptor 2 (TLR2), sequence (chain, as listed by the source): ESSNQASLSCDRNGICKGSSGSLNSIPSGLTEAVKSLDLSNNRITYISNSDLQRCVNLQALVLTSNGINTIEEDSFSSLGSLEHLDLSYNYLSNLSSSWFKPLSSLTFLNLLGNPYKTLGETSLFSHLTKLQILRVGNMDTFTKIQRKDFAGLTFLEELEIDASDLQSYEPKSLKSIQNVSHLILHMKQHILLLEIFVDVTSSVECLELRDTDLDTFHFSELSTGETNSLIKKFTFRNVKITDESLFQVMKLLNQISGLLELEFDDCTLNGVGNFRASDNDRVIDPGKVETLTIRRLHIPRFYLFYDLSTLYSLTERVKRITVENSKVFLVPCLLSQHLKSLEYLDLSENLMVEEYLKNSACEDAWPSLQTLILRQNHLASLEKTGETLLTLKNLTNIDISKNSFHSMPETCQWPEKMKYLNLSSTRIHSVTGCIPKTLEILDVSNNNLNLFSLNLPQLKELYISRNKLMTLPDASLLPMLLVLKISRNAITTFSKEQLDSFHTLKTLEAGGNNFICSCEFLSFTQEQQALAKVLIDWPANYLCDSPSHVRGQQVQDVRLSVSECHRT
row,Binder,Kd
1,B1,373 nM
2,B2,543 nM
3,B3,834 nM
